Assay results published in paper PMC7870846, “Incorporation of sensing modalities into de novo designed fluorescence-activating proteins” (Nature Communications, 2021).
No end group written: not given here.

Columns and labels:
Assay in all cases: other fluorescence titration; MBP-tagged fragment titrated into its complementary MBP-tagged fragment; 25.0 uM DFHBI-1T; high-salt Tev cleavage buffer (25.0 mM Tris, 100 mM NaCl, pH 8.00); ex 468 nm, em 530 nm; estimated Kd, signal did not plateau
Conditions in all cases: both partners purified
[1] = molecular target: T1, MBP-tagged split mFAP fragment m14
T1 chain: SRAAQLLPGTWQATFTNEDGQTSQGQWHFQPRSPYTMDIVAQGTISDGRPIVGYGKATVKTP

[2] = molecular target: T2, MBP-tagged split mFAP fragment m16
T2 chain: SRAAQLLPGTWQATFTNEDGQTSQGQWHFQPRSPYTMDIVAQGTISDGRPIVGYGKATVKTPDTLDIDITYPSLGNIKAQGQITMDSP

[3] = molecular target: T3, MBP-tagged split mFAP fragment m17
T3 chain: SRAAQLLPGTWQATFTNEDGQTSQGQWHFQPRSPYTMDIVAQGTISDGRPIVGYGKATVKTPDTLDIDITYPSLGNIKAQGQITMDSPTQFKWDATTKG

B1: MBP-tagged split mFAP fragment m58 (domain or fragment)
chain: DTLDIDITYPSLGNIKAQGQITMDSPTQFKWDATTKGENDFHGRLTGTLQRQE
modifications: not fully specified
Binder B1 has a Kd [1] of at least 22 µM.

TQFKWDATTKGENDFHGRLTGTLQRQE (domain or fragment, not fully specified) [MBP-tagged split mFAP fragment m78] gave a Kd [2] of at least 232 µM.

With ENDFHGRLTGTLQRQE (domain or fragment, not fully specified) [MBP-tagged split mFAP fragment m8] the Kd [3] was at least 354 µM.
